Data from IntAct's records for PubMed 25910212.

B1: TERF1-interacting nuclear factor 2 (Homo sapiens), Q9BSI4 (parent)
chain: MATPLVAGPAALRFAAAASWQVVRGRCVEHFPRVLEFLRSLRAVAPGLVRYRHHERLCMGLKAKVVVELILQGRPWAQVLKALNHHFPESGPIVRDPKATKQDLRKILEAQETFYQQVKQLSEAPVDLASKLQELEQEYGEPFLAAMEKLLFEYLCQLEKALPTPQAQQLQDVLSWMQPGVSITSSLAWRQYGVDMGWLLPECSVTDSVNLAEPMEQNPPQQQRLALHNPLPKAKPGTHLPQGPSSRTHPEPLAGRHFNLAPLGRRRVQSQWASTRGGHKERPTVMLFPFRNLGSPTQVISKPESKEEHAIYTADLAMGTRAASTGKSKSPCQTLGGRALKENPVDLPATEQKENCLDCYMDPLRLSLLPPRARKPVCPPSLCSSVITIGDLVLDSDEEENGQGEGKESLENYQKTKFDTLIPTLCEYLPPSGHGAIPVSSCDCRDSSRPL
B2: Chorion-specific transcription factor GCMb (Homo sapiens), O75603 (parent)
chain: MPAAAVQEAVGVCSYGMQLSWDINDPQMPQELALFDQFREWPDGYVRFIYSSDEKKAQRHLSGWAMRNTNNHNGHILKKSCLGVVVCTQACTLPDGSRLQLRPAICDKARLKQQKKACPNCHSALELIPCRGHSGYPVTNFWRLDGNAIFFQAKGVHDHPRPESKSETEARRSAIKRQMASFYQPQKKRIRESEAEENQDSSGHFSNIPPLENPEDFDIVTETSFPIPGQPCPSFPKSDVYKATCDLATFQGDKMPPFQKYSSPRIYLPRPPCSYELANPGYTNSSPYPTLYKDSTSIPNDTDWVHLNTLQCNVNSYSSYERSFDFTNKQHGWKPALGKPSLVERTNHGQFQAMATRPYYNPELPCRYLTTPPPGAPALQTVITTTTKVSYQAYQPPAMKYSDSVREVKSLSSCNYAPEDTGMSVYPEPWGPPVTVTRAASPSGPPPMKIAGDCRAIRPTVAIPHEPVSSRTDEAETWDVCLSGLGSAVSYSDRVGPFFTYNNEDF
partner: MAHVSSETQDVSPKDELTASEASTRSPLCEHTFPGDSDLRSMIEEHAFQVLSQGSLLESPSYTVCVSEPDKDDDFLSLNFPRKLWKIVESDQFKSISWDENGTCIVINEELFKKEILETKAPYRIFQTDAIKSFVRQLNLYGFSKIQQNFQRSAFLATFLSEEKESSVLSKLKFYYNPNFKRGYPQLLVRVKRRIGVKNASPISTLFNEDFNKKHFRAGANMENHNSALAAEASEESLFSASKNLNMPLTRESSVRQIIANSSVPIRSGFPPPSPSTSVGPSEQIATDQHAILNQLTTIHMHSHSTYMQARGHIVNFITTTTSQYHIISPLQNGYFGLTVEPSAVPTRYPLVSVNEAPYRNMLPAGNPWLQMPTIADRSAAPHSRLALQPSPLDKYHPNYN
B3: ATP synthase mitochondrial F1 complex assembly factor 2 (Homo sapiens), Q8N5M1 (parent)
chain: MWRSCLRLRDGGRRLLNRPAGGPSASMSPGPTIPSPARAYAPPTERKRFYQNVSITQGEGGFEINLDHRKLKTPQAKLFTVPSEALAIAVATEWDSQQDTIKYYTMHLTTLCNTSLDNPTQRNKDQLIRAAVKFLDTDTICYRVEEPETLVELQRNEWDPIIEWAEKRYGVEISSSTSIMGPSIPAKTREVLVSHLASYNTWALQGIEFVAAQLKSMVLTLGLIDLRLTVEQAVLLSRLEEEYQIQKWGNIEWAHDYELQELRARTAAGTLFIHLCSESTTVKHKLLKE
partner: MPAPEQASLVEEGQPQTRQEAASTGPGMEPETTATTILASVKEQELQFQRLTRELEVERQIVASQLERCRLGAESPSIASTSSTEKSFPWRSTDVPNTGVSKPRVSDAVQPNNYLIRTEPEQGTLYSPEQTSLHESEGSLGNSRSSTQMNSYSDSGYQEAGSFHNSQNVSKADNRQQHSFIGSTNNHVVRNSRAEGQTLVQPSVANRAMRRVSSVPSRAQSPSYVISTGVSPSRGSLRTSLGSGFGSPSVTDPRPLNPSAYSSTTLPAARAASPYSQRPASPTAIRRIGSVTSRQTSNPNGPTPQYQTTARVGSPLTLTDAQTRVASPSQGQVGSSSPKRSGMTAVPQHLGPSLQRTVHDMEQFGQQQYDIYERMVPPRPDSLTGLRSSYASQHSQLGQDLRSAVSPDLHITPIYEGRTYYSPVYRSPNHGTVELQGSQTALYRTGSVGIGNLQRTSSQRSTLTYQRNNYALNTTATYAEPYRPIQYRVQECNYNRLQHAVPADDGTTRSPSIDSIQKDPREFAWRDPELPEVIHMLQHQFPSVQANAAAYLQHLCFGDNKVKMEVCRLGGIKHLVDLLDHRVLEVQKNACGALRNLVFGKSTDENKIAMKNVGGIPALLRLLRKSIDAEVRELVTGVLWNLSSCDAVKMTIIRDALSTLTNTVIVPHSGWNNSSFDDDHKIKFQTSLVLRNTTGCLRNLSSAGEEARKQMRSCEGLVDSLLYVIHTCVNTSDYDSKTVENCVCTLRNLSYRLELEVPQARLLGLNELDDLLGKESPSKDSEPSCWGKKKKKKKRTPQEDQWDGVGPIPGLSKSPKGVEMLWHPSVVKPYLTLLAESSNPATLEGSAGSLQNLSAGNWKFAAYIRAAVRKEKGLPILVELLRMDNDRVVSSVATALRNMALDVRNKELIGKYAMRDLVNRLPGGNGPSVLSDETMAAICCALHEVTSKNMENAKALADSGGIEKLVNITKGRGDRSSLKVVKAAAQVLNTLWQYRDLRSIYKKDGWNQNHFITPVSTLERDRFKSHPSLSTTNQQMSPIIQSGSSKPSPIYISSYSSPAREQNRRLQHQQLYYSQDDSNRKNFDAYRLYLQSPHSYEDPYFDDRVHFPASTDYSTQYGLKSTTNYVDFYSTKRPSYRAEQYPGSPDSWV
B4: E3 ubiquitin-protein ligase Midline-1 (Homo sapiens), O15344 (parent)
chain: METLESELTCPICLELFEDPLLLPCAHSLCFNCAHRILVSHCATNESVESITAFQCPTCRHVITLSQRGLDGLKRNVTLQNIIDRFQKASVSGPNSPSETRRERAFDANTMTSAEKVLCQFCDQDPAQDAVKTCVTCEVSYCDECLKATHPNKKPFTGHRLIEPIPDSHIRGLMCLEHEDEKVNMYCVTDDQLICALCKLVGRHRDHQVAALSERYDKLKQNLESNLTNLIKRNTELETLLAKLIQTCQHVEVNASRQEAKLTEECDLLIEIIQQRRQIIGTKIKEGKVMRLRKLAQQIANCKQCIERSASLISQAEHSLKENDHARFLQTAKNITERVSMATASSQVLIPEINLNDTFDTFALDFSREKKLLECLDYLTAPNPPTIREELCTASYDTITVHWTSDDEFSVVSYELQYTIFTGQANVVSLCNSADSWMIVPNIKQNHYTVHGLQSGTKYIFMVKAINQAGSRSSEPGKLKTNSQPFKLDPKSAHRKLKVSHDNLTVERDESSSKKSHTPERFTSQGSYGVAGNVFIDSGRHYWEVVISGSTWYAIGLAYKSAPKHEWIGKNSASWALCRCNNNWVVRHNSKEIPIEPAPHLRRVGILLDYDNGSIAFYDALNSIHLYTFDVAFAQPVCPTFTVWNKCLTIITGLPIPDHLDCTEQLP
partner: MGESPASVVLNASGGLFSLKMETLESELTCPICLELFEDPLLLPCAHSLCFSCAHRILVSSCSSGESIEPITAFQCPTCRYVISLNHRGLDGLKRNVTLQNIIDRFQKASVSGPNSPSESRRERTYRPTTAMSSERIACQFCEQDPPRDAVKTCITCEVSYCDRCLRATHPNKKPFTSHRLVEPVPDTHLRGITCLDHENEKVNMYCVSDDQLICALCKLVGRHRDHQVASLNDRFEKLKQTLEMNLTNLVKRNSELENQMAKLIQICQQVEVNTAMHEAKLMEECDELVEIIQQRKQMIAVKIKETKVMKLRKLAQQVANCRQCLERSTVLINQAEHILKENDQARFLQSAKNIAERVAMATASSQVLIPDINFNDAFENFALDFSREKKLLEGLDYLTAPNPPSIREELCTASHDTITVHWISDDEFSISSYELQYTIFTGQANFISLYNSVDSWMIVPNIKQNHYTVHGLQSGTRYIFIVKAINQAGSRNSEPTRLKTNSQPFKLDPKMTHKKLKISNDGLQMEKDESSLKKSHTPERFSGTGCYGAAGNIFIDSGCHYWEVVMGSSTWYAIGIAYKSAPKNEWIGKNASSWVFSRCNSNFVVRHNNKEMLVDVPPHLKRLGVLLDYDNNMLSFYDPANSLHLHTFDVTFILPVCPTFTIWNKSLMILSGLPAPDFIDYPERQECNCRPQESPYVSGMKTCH

Variants of: B1
Conditions: with acd_human ACD

| Variant | effect of a mutation on the interaction |
| --- | --- |
| P236S | disrupting interaction strength |
| S245Y | with no effect |
| G237D | with no effect |

Variants of: B2
Conditions: with hsfy1_human HSFY1, Q96LI6

| Variant | effect of a mutation on the interaction |
| --- | --- |
| R47L | disrupting interaction strength |
| G63S | disrupting interaction strength |
| G203S | with no effect |

Variants of: B3
Conditions: with PKP4, Q99569-2

| Variant | effect of a mutation on the interaction |
| --- | --- |
| W94R | disrupting interaction strength |

Variants of: B4
Conditions: with MID2, Q9UJV3-2

| Variant | effect of a mutation on the interaction |
| --- | --- |
| P151L | with no effect |
| C266R | with no effect |
| K370E | with no effect |
